{"source": "patent US20120117670A1", "about": "(U3 PHARMA, published 2012)"}
{"target": "T1, Human AXL-Fc (R&D Systems, #154-AL) (human, UniProt P30530 26-451)", "T1 construct": "Bought reagent; also called human AXL-Fc fusion protein; human AXL-Fc protein; not shown: Fc part of the bought fusion protein", "T1 sequence": "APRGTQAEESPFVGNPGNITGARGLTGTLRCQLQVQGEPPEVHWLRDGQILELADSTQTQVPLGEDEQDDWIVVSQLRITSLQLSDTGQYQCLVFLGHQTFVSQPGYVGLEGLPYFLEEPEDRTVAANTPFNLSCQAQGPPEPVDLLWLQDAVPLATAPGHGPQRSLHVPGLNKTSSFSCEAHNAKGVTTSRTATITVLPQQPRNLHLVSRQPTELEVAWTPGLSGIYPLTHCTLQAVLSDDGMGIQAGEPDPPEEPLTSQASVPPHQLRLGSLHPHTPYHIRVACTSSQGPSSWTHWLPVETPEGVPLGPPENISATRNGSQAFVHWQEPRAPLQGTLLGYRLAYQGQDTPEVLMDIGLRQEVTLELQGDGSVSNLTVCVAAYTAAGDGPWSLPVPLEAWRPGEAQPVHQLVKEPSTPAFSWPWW", "assay": "ELISA on plate-adsorbed human AXL-Fc (1 ug/ml), 5-fold antibody dilution series, AP-conjugated goat anti-human IgG, fluorescent substrate (Example 13)", "units": {"EC50 (read off the curve)": "µg/mL"}}
{"binder": "h#11B7-T25 (antibody, human IgG1, kappa, Humanized IgG1/kappa) heavy: not shown light: DIQMTQSPSSLSASVGDRVTITCRASQDIGNYLRWFQQKPGKAPKLLISGATNLAAGVPSRFSGSGSGSDFTLTISSLQPEDFATYYCLQSKESPWTFGQGTKVEIKRTVAAPSVFIFPPSDEQLKSGTASVVCLLNNFYPREAKVQWKVDNALQSGNSQESVTEQDSKDSTYSLSSTLTLSKADYEKHKVYACEVTHQGLSSPVTKSFNRGEC", "EC50 (read off the curve)": "~0.01"}
{"binder": "h#11B7-T21 (antibody, human IgG1, kappa, V domains shown, Humanized IgG1/kappa) VH: QVQLQESGPGLVKPSETLSLTCTVSGYSITSNYWGWIRQPPGKGLEWIGYITYSGSTSYNPSLKSRVTISRDTSKNQFSLKLSSVTAADTAVYYCAITTFYYWGQGTLVTVSS VL: DIQMTQSPSSLSASVGDRVTITCRASQDIGNYLRWYQQKPGKAPKLMISGATNLAAGVPSRFSGSGSGSDYTLTISSLQPEDFATYYCLQSKESPWTFGQGTKVEIKR", "EC50 (read off the curve)": "~0.02"}
{"target": "T1, Human AXL-Fc (R&D Systems, #154-AL)", "assay": "ELISA on plate-adsorbed human AXL-Fc (1 ug/ml), 5-fold antibody dilution series, AP-conjugated goat anti-human IgG, fluorescent substrate (Example 13)", "remark": "another data set of the same source", "units": {"EC50 (read off the curve)": "µg/mL"}}
{"binder": "h#11B7-T13 (antibody, human IgG1, kappa, V domains shown, Humanized IgG1/kappa) VH: QVQLQESGPGLVKPSETLSLTCTVSGYSITSNYWGWIRQPPGKGLEWIGYITYSGSTSYNPSLKSRVSISRDTSKNQFSLKLSSVTAADTAVYYCAITTFYYWGQGTLVTVSS VL: DIQMTQSPSSLSASVGDRVTITCRASQDIGNYLRWYQQKPGKAPKLLISGATNLAAGVPSRFSGSGSGSDFTLTISSLQPEDFATYYCLQSKESPWTFGQGTKVEIKR", "EC50 (read off the curve)": "~0.03"}
{"binder": "h#11B7-T9 (antibody, human IgG1, kappa, V domains shown, Humanized IgG1/kappa) VH: QVQLQESGPGLVKPSETLSLTCTVSGYSITSNYWGWIRQPPGKGLEWIGYITYSGSTSYNPSLKSRVSISRDTSKNQFSLKLSSVTAADTAVYYCAITTFYYWGQGTLVTVSS VL: DIQMTQSPSSLSASVGDRVTITCRASQDIGNYLRWFQQKPGKAPKLMISGATNLAAGVPSRFSGSGSGSDFTLTISSLQPEDFATYYCLQSKESPWTFGQGTKVEIKR", "EC50 (read off the curve)": "~0.02"}
{"binder": "h#11B7-T8 (antibody, human IgG1, kappa, V domains shown, Humanized IgG1/kappa) VH: QVQLQESGPGLVKPSETLSLTCTVSGYSITSNYWGWIRQPPGKGLEWIGYITYSGSTSYNPSLKSRVSISRDTSKNQFSLKLSSVTAADTAVYYCAITTFYYWGQGTLVTVSS VL: DIQMTQSPSSLSASVGDRVTITCRASQDIGNYLRWFQQKPGKAPKLLISGATNLAAGVPSRFSGSGSGSDYTLTISSLQPEDFATYYCLQSKESPWTFGQGTKVEIKR", "EC50 (read off the curve)": "~0.02"}
{"binder": "h#11B7-T11 (antibody, human IgG1, kappa, V domains shown, Humanized IgG1/kappa) VH: QVQLQESGPGLVKPSETLSLTCTVSGYSITSNYWGWIRQPPGKGLEWIGYITYSGSTSYNPSLKSRVSISRDTSKNQFSLKLSSVTAADTAVYYCAITTFYYWGQGTLVTVSS VL: DIQMTQSPSSLSASVGDRVTITCRASQDIGNYLRWFQQKPGKAPKLLISGATNLAAGVPSRFSGSGSGSDFTLTISSLQPEDFATYYCLQSKESPWTFGQGTKVEIKR", "EC50 (read off the curve)": "~0.02"}
{"binder": "h#11B7-T7 (antibody, human IgG1, kappa, V domains shown, Humanized IgG1/kappa) VH: QVQLQESGPGLVKPSETLSLTCTVSGYSITSNYWGWIRQPPGKGLEWIGYITYSGSTSYNPSLKSRVSISRDTSKNQFSLKLSSVTAADTAVYYCAITTFYYWGQGTLVTVSS VL: DIQMTQSPSSLSASVGDRVTITCRASQDIGNYLRWYQQKPGKAPKLMISGATNLAAGVPSRFSGSGSGSDYTLTISSLQPEDFATYYCLQSKESPWTFGQGTKVEIKR", "EC50 (read off the curve)": "~0.03"}
{"binder": "h#11B7-T12 (antibody, human IgG1, kappa, V domains shown, Humanized IgG1/kappa) VH: QVQLQESGPGLVKPSETLSLTCTVSGYSITSNYWGWIRQPPGKGLEWIGYITYSGSTSYNPSLKSRVSISRDTSKNQFSLKLSSVTAADTAVYYCAITTFYYWGQGTLVTVSS VL: DIQMTQSPSSLSASVGDRVTITCRASQDIGNYLRWYQQKPGKAPKLMISGATNLAAGVPSRFSGSGSGSDFTLTISSLQPEDFATYYCLQSKESPWTFGQGTKVEIKR", "EC50 (read off the curve)": "~0.04"}
{"binder": "h#11B7-T10 (antibody, human IgG1, kappa, V domains shown, Humanized IgG1/kappa) VH: QVQLQESGPGLVKPSETLSLTCTVSGYSITSNYWGWIRQPPGKGLEWIGYITYSGSTSYNPSLKSRVSISRDTSKNQFSLKLSSVTAADTAVYYCAITTFYYWGQGTLVTVSS VL: DIQMTQSPSSLSASVGDRVTITCRASQDIGNYLRWYQQKPGKAPKLLISGATNLAAGVPSRFSGSGSGSDYTLTISSLQPEDFATYYCLQSKESPWTFGQGTKVEIKR", "EC50 (read off the curve)": "~0.02"}
{"target": "T1, Human AXL-Fc (R&D Systems, #154-AL)", "assay": "ELISA on plate-adsorbed human AXL-Fc (1 ug/ml), 5-fold antibody dilution series, AP-conjugated goat anti-human IgG, fluorescent substrate (Example 13)", "remark": "another data set of the same source", "units": {"EC50 (read off the curve)": "µg/mL"}}
{"binder": "h#11B7-T15 (antibody, human IgG1, kappa, Humanized IgG1/kappa) heavy: not shown light: DIQMTQSPSSLSASVGDRVTITCRASQDIGNYLRWFQQKPGKAPKLLISGATNLAAGVPSRFSGSGSGSDYTLTISSLQPEDFATYYCLQSKESPWTFGQGTKVEIKRTVAAPSVFIFPPSDEQLKSGTASVVCLLNNFYPREAKVQWKVDNALQSGNSQESVTEQDSKDSTYSLSSTLTLSKADYEKHKVYACEVTHQGLSSPVTKSFNRGEC", "EC50 (read off the curve)": "~0.02"}
{"binder": "h#11B7-T18 (antibody, human IgG1, kappa, Humanized IgG1/kappa) heavy: not shown light: DIQMTQSPSSLSASVGDRVTITCRASQDIGNYLRWFQQKPGKAPKLLISGATNLAAGVPSRFSGSGSGSDFTLTISSLQPEDFATYYCLQSKESPWTFGQGTKVEIKRTVAAPSVFIFPPSDEQLKSGTASVVCLLNNFYPREAKVQWKVDNALQSGNSQESVTEQDSKDSTYSLSSTLTLSKADYEKHKVYACEVTHQGLSSPVTKSFNRGEC", "EC50 (read off the curve)": "~0.02"}
{"binder": "h#11B7-T14 (antibody, human IgG1, kappa, V domains shown, Humanized IgG1/kappa) VH: QVQLQESGPGLVKPSETLSLTCTVSGYSITSNYWGWIRQPPGKGLEWMGYITYSGSTSYNPSLKSRITISRDTSKNQFSLKLSSVTAADTAVYYCAITTFYYWGQGTLVTVSS VL: DIQMTQSPSSLSASVGDRVTITCRASQDIGNYLRWYQQKPGKAPKLMISGATNLAAGVPSRFSGSGSGSDYTLTISSLQPEDFATYYCLQSKESPWTFGQGTKVEIKR", "EC50 (read off the curve)": "~0.02"}
{"binder": "h#11B7-T20 (antibody, human IgG1, kappa, V domains shown, Humanized IgG1/kappa) VH: QVQLQESGPGLVKPSETLSLTCTVSGYSITSNYWGWIRQPPGKGLEWMGYITYSGSTSYNPSLKSRITISRDTSKNQFSLKLSSVTAADTAVYYCAITTFYYWGQGTLVTVSS VL: DIQMTQSPSSLSASVGDRVTITCRASQDIGNYLRWYQQKPGKAPKLLISGATNLAAGVPSRFSGSGSGSDFTLTISSLQPEDFATYYCLQSKESPWTFGQGTKVEIKR", "EC50 (read off the curve)": "~0.02"}
{"binder": "h#11B7-T19 (antibody, human IgG1, kappa, V domains shown, Humanized IgG1/kappa) VH: QVQLQESGPGLVKPSETLSLTCTVSGYSITSNYWGWIRQPPGKGLEWMGYITYSGSTSYNPSLKSRITISRDTSKNQFSLKLSSVTAADTAVYYCAITTFYYWGQGTLVTVSS VL: DIQMTQSPSSLSASVGDRVTITCRASQDIGNYLRWYQQKPGKAPKLMISGATNLAAGVPSRFSGSGSGSDFTLTISSLQPEDFATYYCLQSKESPWTFGQGTKVEIKR", "EC50 (read off the curve)": "~0.02"}
{"binder": "h#11B7-T17 (antibody, human IgG1, kappa, V domains shown, Humanized IgG1/kappa) VH: QVQLQESGPGLVKPSETLSLTCTVSGYSITSNYWGWIRQPPGKGLEWMGYITYSGSTSYNPSLKSRITISRDTSKNQFSLKLSSVTAADTAVYYCAITTFYYWGQGTLVTVSS VL: DIQMTQSPSSLSASVGDRVTITCRASQDIGNYLRWYQQKPGKAPKLLISGATNLAAGVPSRFSGSGSGSDYTLTISSLQPEDFATYYCLQSKESPWTFGQGTKVEIKR", "EC50 (read off the curve)": "~0.02"}
{"binder": "h#11B7-T16 (antibody, human IgG1, kappa, V domains shown, Humanized IgG1/kappa) VH: QVQLQESGPGLVKPSETLSLTCTVSGYSITSNYWGWIRQPPGKGLEWMGYITYSGSTSYNPSLKSRITISRDTSKNQFSLKLSSVTAADTAVYYCAITTFYYWGQGTLVTVSS VL: DIQMTQSPSSLSASVGDRVTITCRASQDIGNYLRWFQQKPGKAPKLMISGATNLAAGVPSRFSGSGSGSDFTLTISSLQPEDFATYYCLQSKESPWTFGQGTKVEIKR", "EC50 (read off the curve)": "~0.02"}
